From PMC8040517 (The Journal of Experimental Medicine, 2021)

What was measured:
Assay in all cases: crystal structure
Conditions in all cases: both partners purified
[1] = target: TBEV^FE EDIII-His-Avitag (envelope domain III of tick-borne encephalitis virus, Far Eastern subtype, strain … (Tick-borne encephalitis virus Far …, UniProt P07720, strain))
[2] = target: TBEV^Si EDIII (envelope domain III of tick-borne encephalitis virus, Siberian subtype, strain Vasilchenko), … (Tick-borne encephalitis virus Siberian …, UniProt Q9WBS4, strain)
[3] = target: TBEV^WE EDIII-His-Avitag (envelope domain III of tick-borne encephalitis virus, Western European subtype, … (Tick-borne encephalitis virus Western …, UniProt P14336))

Measured: binding result

B1: T025 Fab (antigen-binding fragment of human antibody T025, IGVH3–30/IGVK3–15) (Fab, V domains shown)
VH: QVQLVESGGGVVQPGRSLRLSCAASGFTFSNYGMHWVRQAPGKGLDWVAVISYDAISKSYADSVEGRFTISRDNSKNTLYLQMNSLRAEDSAVYYCAKSPTAIDPPFDYWGQGTLVTVSS
VL: EIVMTQSPATLSVSPGERATLSCWASQSVSSNLAWYQQKPGQAPRLLIYGASTRATGIPARFSASGSGTEFTLTISSLQSEDFAVYYCQQYNNWPPRFGQGTKVEIK
notes: not shown: 6XHis, C-terminal, kept
binds: [1] | [2] | [3]
